For assay [1], the target named is T1, human 5T4 on cells (human) (UniProt Q13641).
T1 sequence (looked up): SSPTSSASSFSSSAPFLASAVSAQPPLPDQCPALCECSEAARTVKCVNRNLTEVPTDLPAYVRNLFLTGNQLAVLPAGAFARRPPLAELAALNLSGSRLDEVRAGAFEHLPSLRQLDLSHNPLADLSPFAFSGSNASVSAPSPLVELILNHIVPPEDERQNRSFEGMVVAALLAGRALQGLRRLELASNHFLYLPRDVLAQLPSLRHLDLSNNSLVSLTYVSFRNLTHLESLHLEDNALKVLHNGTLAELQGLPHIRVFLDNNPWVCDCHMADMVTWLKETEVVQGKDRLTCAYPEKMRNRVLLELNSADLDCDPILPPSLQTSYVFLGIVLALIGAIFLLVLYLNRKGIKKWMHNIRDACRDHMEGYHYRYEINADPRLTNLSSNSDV
Nature of the assay: FACS on NCI-H226 cells (endogenous 5T4).

Assay [2] addresses T1, human 5T4 on cells (human). Nature of the assay: cell-based or functional assay.
Assay [3] has as its target T1, human 5T4 on cells (human). Nature of the assay: FACS on CHO cells over expressing 5T4.
The target of assay [4] is T1, human 5T4 on cells (human). Nature of the assay: FACS, CHO cells over expressing human 5T4.
Assay [5] has as its target T2, h5T4-His (cat #19845-H08H, Sino Biological) (human) (UniProt Q13641).
T2 sequence (looked up): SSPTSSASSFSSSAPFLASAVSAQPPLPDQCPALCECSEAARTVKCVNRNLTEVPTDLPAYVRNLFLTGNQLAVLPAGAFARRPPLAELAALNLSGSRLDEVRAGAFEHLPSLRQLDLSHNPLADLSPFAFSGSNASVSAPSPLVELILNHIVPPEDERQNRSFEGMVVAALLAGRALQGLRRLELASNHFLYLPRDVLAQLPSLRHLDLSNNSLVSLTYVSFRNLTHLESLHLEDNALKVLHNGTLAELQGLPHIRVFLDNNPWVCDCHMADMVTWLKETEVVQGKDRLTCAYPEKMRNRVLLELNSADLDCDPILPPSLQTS
Nature of the assay: ELISA, coated h5T4-His. In general terms: An ELISA detects its analyte on a solid surface through an enzyme-linked reagent.

Assay [6] has as its target T1, human 5T4 on cells (human). Nature of the assay: FACS, NCI-H226 cells. For orientation: In flow cytometry, cells or beads pass a laser one at a time.

Where a chain is given by its changes, count along the chain named.

B1: IM-1222 Tribody (5T4_IM53-CD3-NKG2A) (protein, part only; not given: anti-CD3 Fab, anti-NKG2A scFv, linkers, not shown: another chain or arm of the molecule; small tags and cut ends)
VH: QVQLVQSGAEVKKPGASVKVSCKASGYTFTDYYMNWVRQAPGRGLEWMGVFNPYNGDTRYTQKFKDRVTMTIDKSISTAYMELSRLRSDDTAVYYCARLRLLYDTSEYYVMDYWGQGTTVTVSS
VL: ENVLTQSPATLSLSPGERATLSCSASSSVNYMHWYQQKPGQSPRLLIYDTSKLASGIPARFSGSGSGTDYTLTISSLEPEDFAVYFCFQGSGYPYTFGGGTKVEIK
The term EC50 denotes the concentration giving half of the maximal effect. Read a low EC50 as an effect from little substance. Turning to B1, the EC50 worked out at 3.9 nM in assay [1] and 2.3 nM in assay [3]. In assay [2], this molecule registered a T cells mediated cytotoxicity (lactate dehydrogenase assay), EC50 of 0.02 nM.

B2: CD3x5T4-IM51xNKG2A (protein, part only; not given: anti-CD3 Fab, anti-NKG2A scFv, linkers, not shown: another chain or arm of the molecule; small tags and cut ends)
VH: B1 VH with R43Q, I72R, K74T
VL: B1 VL
As usually defined, the EC50 (read off the curve) is the midpoint of the concentration-response curve. On to B2, for which the EC50 (read off the curve) in assay [4] was determined as 5 nM.

B3: CD3x5T4-IM49xNKG2A (protein, part only; not given: anti-CD3 Fab, anti-NKG2A scFv, linkers, not shown: another chain or arm of the molecule; small tags and cut ends)
VH: QVQLVQSGAEVKKPGASVKVSCKASGYTFTDYYMNWVRQAPGRGLEWIGVFNPYNGDTRYTQKFKDRATLTIDKSISTAYMELSRLRSDDTAVYYCARLRLLYDTSEYYVMDYWGQGTTVTVS
VL: B1 VL with S42A, F86Y
Molecule B3 had an EC50 (read off the curve) in assay [4] of 5 nM.

B4: CD3x5T4-IM50xNKG2A (protein, part only; not given: anti-CD3 Fab, anti-NKG2A scFv, linkers, not shown: another chain or arm of the molecule; small tags and cut ends)
VH: B1 VH with T28P, M48I, R67K, V68A, M70L, S84N
VL: B1 VL with S42A, F86Y
The molecule B4 registered an EC50 (read off the curve) in assay [4] of 5 nM.

B5: CD3x5T4-IM34xNKG2A (protein, part only; not given: anti-CD3 Fab, anti-NKG2A scFv, linkers, not shown: another chain or arm of the molecule; small tags and cut ends)
VH: B1 VH with Q1A, R43Q, R67K, I76T, A79V, S84N, R85S, D89E
VL: B1 VL with S42A, T68N, Y70F, F86Y
For B5, in assay [4], the EC50 (read off the curve) is 6 nM.

B6: CD3X5T4_cl-16XNKG2A (protein, part only; not given: anti-CD3 Fab, anti-NKG2A scFv, linkers, not shown: another chain or arm of the molecule; small tags and cut ends)
VH: AVQLQQSGPVRVKPGASVKMSCKASGYPFTDYYMNWVKQSHGRSLDWIGVFNPYNGDTRYTQKFKDKATLTIDKSSSTAYMELNSLTSEDSAVYYCARLRLLYDTSEYYVMDYWGQGTSVTVSS
VL: ENVLTQSPAIMSASPGEKVTMTCSASSSVNYMHWYQQKSNTSPKLWIYDTSKLASGVPGRFSGSGSGNSYSLTISSMEAEDVATYFCFQGSGYPYTFGGGTKLEIK
For the molecule B6, the results for the EC50 (read off the curve) in assay [5], in assay [4] and in assay [6] were 40 nM, 3 nM and 6 nM, respectively.

B7: IM-1178 Tribody (CD3x5T4_IM24xNKG2D) (protein, part only; not given: anti-CD3 Fab, anti-NKG2D scFv, linkers, not shown: another chain or arm of the molecule; small tags and cut ends)
VH: QVQLVQSGAEVKKPGASVKLTCTASGYTFTAYYMHWMRQAPGQGLEWMGIVLPGRGSTNYAQKFQGRVTVTRDTSTNTVYMELNSLTSEDTAVYYCVRGYRDFDYWGPGTLVTVSS
VL: ELVLTQSPATLSLSPGERATLSCKASQNVGTAVAWYQQKPGQAPRLLIYSASNRYTGIPARFSGSGSGTDFTLTVSSLEPEDFAVYYCQQYTSYPRTFGQGTKVEIK
Take B7: the EC50 in assay [1] is 1.24 nM; in assay [3], 1.4 nM.
